Reference: patent US20230235012A1 (ALPINE IMMUNE SCIENCES, published 2023)
Values joined by “and” are separate entries in the source; they are usually repeats but may differ in a detail not shown here. Equal entries are not always repeated.

Experiments:
human CD28 [1] = molecular target: T1, human CD28 (human, UniProt P10747 19-220); test: flow cytometry, CD28-transfected cells
T1 construct: whole, on cells

human CD28 [2] = molecular target: T1, human CD28; test: flow cytometry, transfected cells; protein from CHO
human ICOS [3] = molecular target: T2, human ICOS (human, UniProt Q9Y6W8 21-199); test: as above
T2 construct: whole, on cells
T2 sequence (looked up): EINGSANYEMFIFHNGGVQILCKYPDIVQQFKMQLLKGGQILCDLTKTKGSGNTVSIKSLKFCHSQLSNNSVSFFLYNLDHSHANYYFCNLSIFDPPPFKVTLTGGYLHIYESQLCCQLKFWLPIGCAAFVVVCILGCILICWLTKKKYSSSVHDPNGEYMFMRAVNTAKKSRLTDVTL

human CTLA-4 [4] = molecular target: T3, human CTLA-4 (human, UniProt P16410 36-223); test: as above
T3 construct: whole, on cells
T3 sequence (P16410 36-223): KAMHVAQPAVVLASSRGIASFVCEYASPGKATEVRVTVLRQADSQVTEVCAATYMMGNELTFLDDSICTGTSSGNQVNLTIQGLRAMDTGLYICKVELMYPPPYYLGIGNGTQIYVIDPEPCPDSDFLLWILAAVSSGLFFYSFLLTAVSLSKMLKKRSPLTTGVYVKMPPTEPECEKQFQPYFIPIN

human CD28 [5] = molecular target: T1, human CD28; test: as above; remark: listed apart in the source
human ICOS [6] = molecular target: T2, human ICOS; test: as above; remark: listed apart in the source
human CTLA-4 [7] = molecular target: T3, human CTLA-4; test: as above; remark: listed apart in the source
human CD28 [8] = molecular target: T1, human CD28; test: flow cytometry, transfected cells; protein from 293
human ICOS [9] = molecular target: T2, human ICOS; test: as above
human CTLA-4 [10] = molecular target: T3, human CTLA-4; test: as above

Molecule | parental ratio of MFI (human CD28 [1]) | MFI (human CD28 [2]) [MFI] | MFI ratio to WT (human CD28 [2]) [fold] | MFI (human ICOS [3]) [MFI] | MFI ratio to WT (human ICOS [3]) [fold] | MFI (human CTLA-4 [4]) [MFI] | MFI ratio to WT (human CTLA-4 [4]) [fold] | MFI (human CD28 [5]) [MFI] | MFI ratio to WT (human CD28 [5]) [fold] | MFI (human ICOS [6]) [MFI] | MFI ratio to WT (human ICOS [6]) [fold] | MFI (human CTLA-4 [7]) [MFI] | MFI ratio to WT (human CTLA-4 [7]) [fold] | MFI (human CD28 [8]) [MFI] | MFI ratio to WT (human CD28 [8]) [fold] | MFI (human ICOS [9]) [MFI] | MFI ratio to WT (human ICOS [9]) [fold] | MFI (human CTLA-4 [10]) [MFI] | MFI ratio to WT (human CTLA-4 [10]) [fold] | also measured
ICOSL T43A/N52H/N57Y/L74Q/D89G/V110D/F172S ECD-Fc (Fc fusion) | 0.49 fold vs WT | – | – | – | – | – | – | – | – | – | – | – | – | – | – | – | – | – | – | –
ICOSL N52H/N57Y/Q100R/V110D/V116A/L161M/F172S/S192G/C198R ECD-Fc (Fc fusion) | 0.93 fold vs WT | – | – | – | – | – | – | – | – | – | – | – | – | – | – | – | – | – | – | –
ICOSL F27S/N52H/N57Y/V110N ECD-Fc (Fc fusion) | 1.92 fold vs WT and 0.93 fold vs WT | – | – | – | – | – | – | – | – | – | – | – | – | – | – | – | – | – | – | MFI (human CD28 [1]): 8610 MFI and 4160 MFI
ICOSL Y47H/N52S/V107A/F120S ECD-Fc (Fc fusion) | 0.31 fold vs WT | – | – | – | – | – | – | – | – | – | – | – | – | – | – | – | – | – | – | –
ICOSL ECD Truncation #4 with N52H/N57Y/Q100R/F172S, Fc fusion (Fc fusion) DTQEKEVRAMVGSDVELSCACPEGSRFDLNDVYVYWQTSESKTVVTYHIPQHSSLEYVDSRYRNRALMSPAGMLRGDFSLRLFNVTPQDEQKFHCLVLSRSLGFQEVLSVEVTLHVAANFSVPVVSAPHSPSQDELTFTCTSINGYPRPNVYWINKTDNSLLDQALQNDTVSLNMRGLYDVVSVLRIARTPSVNIGCCIENVLLQQNGGGGSGGGGSEPKSSDKTHTCPPCPAPEAEGAPSVFLFPPKPKDTLMISRTPEVTCVVVDVSHEDPEVKFNWYVDGVEVHNAKTKPREEQYNSTYRVVSVLTVLHQDWLNGKEYKCKVSNKALPAPIEKTISKAKGQPREPQVYTLPPSREEMTKNQVSLTCLVKGFYPSDIAVEWESNGQPENNYKTTPPVLDSDGSFFLYSKLTVDKSRWQQGNVFSCSVMHEALHNHYTQKSLSLSPG | – | 68600 | 39.7 | 133000 | 1.3 | 377000 | 49.8 | 12700 | 3.6 | 7610 | 0.7 | 9000 | 0.7 | 14700 | 4.1 | 6890 | 0.6 | 8840 | 0.7 | –
ICOSL ECD with N52H/N57Y/Q100R/F172S, (G4S)2-Fc fusion (Fc fusion, also called ICOSCL ECD with N52H/N57Y/Q100R/F172S) DTQEKEVRAMVGSDVELSCACPEGSRFDLNDVYVYWQTSESKTVVTYHIPQHSSLEYVDSRYRNRALMSPAGMLRGDFSLRLFNVTPQDEQKFHCLVLSRSLGFQEVLSVEVTLHVAANFSVPVVSAPHSPSQDELTFTCTSINGYPRPNVYWINKTDNSLLDQALQNDTVSLNMRGLYDVVSVLRIARTPSVNIGCCIENVLLQQNLTVGSQTGNDIGERDKITENPVSTGEKNAATGGGGSGGGGSEPKSSDKTHTCPPCPAPEAEGAPSVFLFPPKPKDTLMISRTPEVTCVVVDVSHEDPEVKFNWYVDGVEVHNAKTKPREEQYNSTYRVVSVLTVLHQDWLNGKEYKCKVSNKALPAPIEKTISKAKGQPREPQVYTLPPSREEMTKNQVSLTCLVKGFYPSDIAVEWESNGQPENNYKTTPPVLDSDGSFFLYSKLTVDKSRWQQGNVFSCSVMHEALHNHYTQKSLSLSPG | – | 110000 | 63.9 | 136000 | 1.4 | 323000 | 42.6 | 14400 | 4.1 | 12600 | 1.1 | 8710 | 0.7 | 12900 | 3.6 | 16000 | 1.4 | 8180 | 0.7 | –
